Data on 5 molecules can be found in patent publication US20030130484A1, “Inhibitors and disassemblers of fibrillogenesis” (priority 2001, published 2003).

Where two headings read alike, the source gives them in different places.

Assay [1] concerns the target human Aβ1-40 peptide (human). Kind of assay: cell-based or functional assay.
In the next assay the target is Aβ16-22m. Kind of assay: size exclusion chromatography, self-association.
The target of assay [2] is human Aβ1-40 peptide (human). The assay can be described thus: cell-based or functional assay. The source holds these as a separate data set.

B1: Aβ16-22m (peptide)
peptide: KLVFFAE
modifications: not checked
Consider B1, for which, in assay [1], the IC50 of inhibition of fibrillogenesis (thioflavin fluorescence) (inhibitor:Aβ40 ratio) amounted to 4, the Inhibition of Fibrillogenesis IC50 (thioflavin fluorescence) (inhibitor:Aβ40 molar ratio) amounted to 4.2, the Inhibition of Fibrillogenesis ICmax was determined as 100% and the Inhibition of Fibrilogenesis IC50 (µM) came out at 4.2 µM. In assay [1], the Inhibition of Fibrilogenesis ICmax (%) turned out to be 100% and the molar excess giving complete elimination of thioflavin fluorescence (fold molar excess) is 30. Besides, in the assay with Aβ16-22m, the percent oligomer (% oligomer (at 0.1 mg/ml)) fell in the range of 1 to 91 and the percent oligomer (% oligomer (at 6 mg/ml)) lay within 1 to 91.

B2: Aβ16-20m (peptide)
peptide: KLVFF
modifications: not checked
On to B2, for which, in assay [1], the Inhibition IC50 (thioflavin T fluorescence) (inhibitor to Aβ40 molar ratio) was 6.5, the Inhibition ICmax was determined as 100%, the Inhibition of Fibrilogenesis IC50 (µM) is 0.4 µM and the Inhibition of Fibrilogenesis ICmax (%) came to 100%. Besides, the Inhibition IC50 (thioflavin T assay) (inhibitor:Aβ1-40 ratio) in assay [2] was determined as 6.9.

B3: Aβ16-22mR (peptide)
peptide: ELVFFAK
modifications: not checked
Consider B3, for which, in assay [1], the IC50 of inhibition of fibrillogenesis (thioflavin fluorescence) (inhibitor:Aβ40 ratio) amounted to 9, the Inhibition of Fibrillogenesis IC50 (thioflavin fluorescence) (inhibitor:Aβ40 molar ratio) amounted to 7.8, the Inhibition of Fibrillogenesis ICmax came to 100% and the Inhibition of Fibrilogenesis IC50 (µM) is 7.8 µM. In assay [1], the Inhibition of Fibrilogenesis ICmax (%) is 100% and the ratio giving complete elimination of thioflavin fluorescence (inhibitor:Aβ40 ratio) was 50.

B4: Aβ16-20 (peptide)
peptide: KLVFF
modifications: not checked
On to B4, for which, in assay [1], the Inhibition IC50 (thioflavin T fluorescence) (inhibitor to Aβ40 molar ratio) worked out at 5.3 and the Inhibition ICmax came out at 89%. Further, in assay [2], the Inhibition IC50 (thioflavin T assay) (inhibitor:Aβ1-40 ratio) came to 9.7 and the Inhibition ICmax amounted to 100%.

B5: Aβ16-20e (peptide)
peptide: KLVFF
modifications: not checked
Regarding B5, in assay [2], the Inhibition IC50 (thioflavin T assay) (inhibitor:Aβ1-40 ratio) is 3.7 and the Inhibition ICmax amounted to 100%.
